Here are results for 1 substance from patent publication US20070031331A1.

pKd: −log10 of the molar value.

The term pKd denotes the Kd on a negative log10 scale, so that one unit is a factor of ten.

In assay [1] the target is human CD20 (human) (UniProt P11836). Put plainly: cell-based or functional assay.
For assay [2] the target is unchanged. In words: Scatchard analysis, cold antibody against 125I-2H7.v16 on WIL2-S cells, n=3.

Chain of human CD20 (human) (P11836 whole entry): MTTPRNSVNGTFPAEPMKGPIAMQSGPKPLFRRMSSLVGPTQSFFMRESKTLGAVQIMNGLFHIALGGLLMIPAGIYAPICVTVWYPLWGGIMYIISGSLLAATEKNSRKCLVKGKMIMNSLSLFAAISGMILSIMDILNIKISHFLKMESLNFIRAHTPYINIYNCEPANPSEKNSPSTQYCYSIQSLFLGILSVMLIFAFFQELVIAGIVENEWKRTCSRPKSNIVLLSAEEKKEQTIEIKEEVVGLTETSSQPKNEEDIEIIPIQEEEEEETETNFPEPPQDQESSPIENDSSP

In assay [1], RITUXAN® (rituximab) (antibody) came in with an ADCC: EC50(variant)/EC50(2H7.v16) of 5.3, an ADCC: EC50(variant)/EC50(RITUXAN®) of 1 and a CDC: EC50(variant)/EC50(RITUXAN®) of 1. Besides, the pKd in assay [2] is 9.00.
